# In article PMC8967867 (2022):
# T1: CID1R^ML, maximum likelihood reconstructed CBP-interacting domain (CID) of the NCOA family from an early …
# T1 chain: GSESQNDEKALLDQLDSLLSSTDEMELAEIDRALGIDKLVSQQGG
# What was measured:
# [1] = target: CID1R^AltAll, alternative reconstructed CID of the early vertebrate ancestor (1R) with the second most likely …; experiment: ITC
# [2] = target: T1, CID1R^ML, maximum likelihood …; experiment: ITC
Kd [1],Kd [2],Binder
2.2 µM,,GSTPPQALQQLLQTLKSPSSPQQQQQVLQILKSNPQLMAAFIKQRSQHQQ (domain or fragment)
,9.7 µM,IMPPALQQLLQTLKSPNSPQQQQQVLHILKSNPQLMAAFIKQRSQQQQ (domain or fragment)
